# B1: FLAG-WASp (natural protein, UniProt P42768 1-502, looked up)
# chain: MSGGPMGGRPGGRGAPAVQQNIPSTLLQDHENQRLFEMLGRKCLTLATAVVQLYLALPPGAEHWTKEHCGAVCFVKDNPQKSYFIRLYGLQAGRLLWEQELYSQLVYSTPTPFFHTFAGDDCQAGLNFADEDEAQAFRALVQEKIQKRNQRQSGDRRQLPPPPTPANEERRGGLPPLPLHPGGDQGGPPVGPLSLGLATVDIQNPDITSSRYRGLPAPGPSPADKKRSGKKKISKADIGAPSGFKHVSHVGWDPQNGFDVNNLDPDLRSLFSRAGISEAQLTDAETSKLIYDFIEDQGGLEAVRQEMRRQEPLPPPPPPSRGGNQLPRPPIVGGNKGRSGPLPPVPLGIAPPPPTPRGPPPPGRGGPPPPPPPATGRSGPLPPPPPGAGGPPMPPPPPPPPPPPSSGNGPAPPPLPPALVPAGGLAPGGGRGALLDQIRQGIQLNKTPGAPESSALQPPPQSSEGLVGALMHVMQKRSRAIHSSDEGEDQAGDEDEDDEWDD
# Biological target: myc-DGKα (UniProt P23743 1-735)
# Assay: cell-based or functional assay
# Sequence of myc-DGKα (P23743 whole entry): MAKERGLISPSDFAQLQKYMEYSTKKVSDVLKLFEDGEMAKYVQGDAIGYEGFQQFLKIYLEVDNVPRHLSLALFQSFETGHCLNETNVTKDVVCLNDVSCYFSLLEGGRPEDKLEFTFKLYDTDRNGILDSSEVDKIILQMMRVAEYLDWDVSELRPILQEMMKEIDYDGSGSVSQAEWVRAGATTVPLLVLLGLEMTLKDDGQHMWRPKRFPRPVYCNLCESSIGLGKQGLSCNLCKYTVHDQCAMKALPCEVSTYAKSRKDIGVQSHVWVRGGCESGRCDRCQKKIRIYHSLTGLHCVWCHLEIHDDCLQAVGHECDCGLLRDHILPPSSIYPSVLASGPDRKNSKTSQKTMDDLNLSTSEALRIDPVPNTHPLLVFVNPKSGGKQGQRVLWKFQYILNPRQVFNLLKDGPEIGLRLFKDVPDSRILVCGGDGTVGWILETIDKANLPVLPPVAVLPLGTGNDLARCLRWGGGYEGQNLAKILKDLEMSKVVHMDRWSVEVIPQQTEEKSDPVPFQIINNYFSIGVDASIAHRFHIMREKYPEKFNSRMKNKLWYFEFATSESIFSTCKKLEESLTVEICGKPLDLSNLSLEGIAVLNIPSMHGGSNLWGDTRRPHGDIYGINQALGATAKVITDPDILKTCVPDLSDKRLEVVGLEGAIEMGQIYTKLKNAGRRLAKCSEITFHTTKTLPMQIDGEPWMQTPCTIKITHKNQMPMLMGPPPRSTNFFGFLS
binder,measurement,value
B1,"decrease in DGK activity of total homogenates of 293T cells co-transfected with myc-DGKα and FLAG-WASp, against myc-DGKα with GFP control vector",~50%

# From article PMC10149931, “Wiskott-Aldrich syndrome protein interacts and inhibits diacylglycerol kinase alpha promoting IL-2 induction” (Frontiers in Immunology, 2023)
